The chains are these.
B1: Protein PTHB1 (Homo sapiens), Q3SYG4 (parent)
chain: MSLFKARDWWSTILGDKEEFDQGCLCLANVDNSGNGQDKIIVGSFMGYLRIFSPHPAKTGDGAQAEDLLLEVDLRDPVLQVEVGKFVSGTEMLHLAVLHSRKLCVYSVSGTLGNVEHGNQCQMKLMYEHNLQRTACNMTYGSFGGVKGRDLICIQSMDGMLMVFEQESYAFGRFLPGFLLPGPLAYSSRTDSFLTVSSCQQVESYKYQVLAFATDADKRQETEQQKLGSGKRLVVDWTLNIGEQALDICIVSFNQSASSVFVLGERNFFCLKDNGQIRFMKKLDWSPSCFLPYCSVSEGTINTLIGNHNNMLHIYQDVTLKWATQLPHIPVAVRVGCLHDLKGVIVTLSDDGHLQCSYLGTDPSLFQAPNVQSRELNYDELDVEMKELQKIIKDVNKSQGVWPMTEREDDLNVSVVVSPNFDSVSQATDVEVGTDLVPSVTVKVTLQNRVILQKAKLSVYVQPPLELTCDQFTFEFMTPDLTRTVSFSVYLKRSYTPSELEGNAVVSYSRPTDRNPDGIPRVIQCKFRLPLKLICLPGQPSKTASHKITIDTNKSPVSLLSLFPGFASQSDDDQVNVMGFHFLGGARITVLASKTSQRYRIQSEQFEDLWLITNELILRLQEYFEKQGVKDFACSFSGSIPLQEYFELIDHHFELRINGEKLEELLSERAVQFRAIQRRLLARFKDKTPAPLQHLDTLLDGTYKQVIALADAVEENQGNLFQSFTRLKSATHLVILLIALWQKLSADQVAILEAAFLPLQEDTQELGWEETVDAAISHLLKTCLSKSSKEQALNLNSQLNIPKDTSQLKKHITLLCDRLSKGGRLCLSTDAAAPQTMVMPGGCTTIPESDLEERSVEQDSTELFTNHRHLTAETPRPEVSPLQGVSE
partner: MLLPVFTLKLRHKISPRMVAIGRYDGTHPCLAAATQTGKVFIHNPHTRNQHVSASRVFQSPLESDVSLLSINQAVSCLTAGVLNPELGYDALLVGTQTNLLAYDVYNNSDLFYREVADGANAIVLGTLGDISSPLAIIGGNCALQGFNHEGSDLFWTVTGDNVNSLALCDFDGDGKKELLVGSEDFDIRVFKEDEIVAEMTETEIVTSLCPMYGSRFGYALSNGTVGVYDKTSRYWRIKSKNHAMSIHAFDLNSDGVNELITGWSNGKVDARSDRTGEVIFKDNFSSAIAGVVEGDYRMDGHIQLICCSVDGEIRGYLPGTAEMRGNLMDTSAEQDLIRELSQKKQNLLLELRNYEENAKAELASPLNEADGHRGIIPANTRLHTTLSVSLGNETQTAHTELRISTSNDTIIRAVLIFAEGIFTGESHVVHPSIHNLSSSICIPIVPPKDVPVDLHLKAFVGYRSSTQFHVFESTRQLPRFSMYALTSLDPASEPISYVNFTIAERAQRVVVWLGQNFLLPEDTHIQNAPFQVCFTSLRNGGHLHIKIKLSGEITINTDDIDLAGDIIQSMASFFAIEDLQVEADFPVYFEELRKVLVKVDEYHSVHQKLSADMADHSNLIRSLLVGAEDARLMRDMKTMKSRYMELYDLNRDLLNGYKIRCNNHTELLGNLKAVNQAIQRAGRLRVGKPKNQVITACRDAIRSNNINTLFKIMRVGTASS

Variants of B1 are the subject of the assay. Particulars: with bbs2_human BBS2, Q9BXC9.
Regarding E714A, the “effect of a mutation on the interaction” value is “with no effect”.

For the variant E714K, the “effect of a mutation on the interaction” value is reported as “with no effect”.

Turning to V706A, the “effect of a mutation on the interaction” value is “with no effect”. Regarding V706E, the “effect of a mutation on the interaction” value was “with no effect”. As for V706K, the “effect of a mutation on the interaction” value is given as “with no effect”. Then R726A, with “with no effect”; and R726E, with “with no effect”; and R726K, with “with no effect”. Then N716A, with “disrupting interaction strength”; and N716E, with “with no effect”. With N716K, the “effect of a mutation on the interaction” value is listed as “with no effect”. Q705E: the “effect of a mutation on the interaction” value is listed as “with no effect”.

For the variant Q705K, the “effect of a mutation on the interaction” value was “with no effect”. Q705A: the “effect of a mutation on the interaction” value is listed as “with no effect”. Then Q705M, with “disrupting interaction strength”; and A712E, with “with no effect”; and A712K, with “with no effect”. In the case of G718K, the “effect of a mutation on the interaction” value is on record as “with no effect”. For G718E, the “effect of a mutation on the interaction” value is “with no effect”.

For the variant G718A, the “effect of a mutation on the interaction” value is “with no effect”.

Consider G718D, for which the “effect of a mutation on the interaction” value is reported as “disrupting interaction strength”. In the case of L699E, the “effect of a mutation on the interaction” value is reported as “with no effect”. Then L699A, with “with no effect”; and L699K, with “disrupting interaction strength”; and N719K, with “with no effect”. On to N719A, for which the “effect of a mutation on the interaction” value is listed as “with no effect”. Consider N719E, for which the “effect of a mutation on the interaction” value was “with no effect”. Consider D700K, for which the “effect of a mutation on the interaction” value is recorded as “with no effect”. Then D700A, with “with no effect”; and D700E, with “with no effect”; and I707E, with “with no effect”.

As to I707A, the “effect of a mutation on the interaction” value is “with no effect”. Turning to I707K, the “effect of a mutation on the interaction” value is “with no effect”.

In the case of L720E, the “effect of a mutation on the interaction” value is “with no effect”. As to L720A, the “effect of a mutation on the interaction” value is recorded as “with no effect”. On to L720K, for which the “effect of a mutation on the interaction” value is on record as “with no effect”. For Q717A, the “effect of a mutation on the interaction” value was “with no effect”. As to Q717E, the “effect of a mutation on the interaction” value is reported as “with no effect”. In the case of Q717K it was “with no effect”; in that of Y703E, “with no effect”. In the case of Y703K it was “with no effect”; in that of Y703A, “with no effect”; in that of V713A, “with no effect”.

As for V713K, the “effect of a mutation on the interaction” value is “with no effect”.

In the case of V713E, the “effect of a mutation on the interaction” value is reported as “with no effect”. As to A708E, the “effect of a mutation on the interaction” value is “with no effect”.

Consider A708K, for which the “effect of a mutation on the interaction” value is reported as “with no effect”. For G701K, the “effect of a mutation on the interaction” value is “with no effect”.

In the case of G701A, the “effect of a mutation on the interaction” value was “with no effect”. As to G701E, the “effect of a mutation on the interaction” value was “disrupting interaction strength”. Then A710E, with “with no effect”; and A710K, with “with no effect”.

Regarding K704E, the “effect of a mutation on the interaction” value is “with no effect”. For the variant K704A, the “effect of a mutation on the interaction” value is given as “with no effect”.

As for T702A, the “effect of a mutation on the interaction” value is on record as “with no effect”. For the variant T702C, the “effect of a mutation on the interaction” value is “disrupting interaction strength”. Consider T702K, for which the “effect of a mutation on the interaction” value was “with no effect”.

As for T702E, the “effect of a mutation on the interaction” value is “with no effect”. As for D711E, the “effect of a mutation on the interaction” value is “with no effect”. In the case of D711A, the “effect of a mutation on the interaction” value is “with no effect”. Take D711K: the “effect of a mutation on the interaction” value is reported as “with no effect”. For L727A, the “effect of a mutation on the interaction” value is on record as “with no effect”. Then L727K, with “with no effect”; and L727E, with “with no effect”; and L709A, with “with no effect”.

Regarding L709K, the “effect of a mutation on the interaction” value is “with no effect”. Turning to L709E, the “effect of a mutation on the interaction” value is reported as “with no effect”. Consider F724K, for which the “effect of a mutation on the interaction” value is “with no effect”. Then F724A, with “with no effect”; and F724E, with “with no effect”. Then F721A, with “with no effect”; and F721K, with “with no effect”. With F721E, the “effect of a mutation on the interaction” value is reported as “with no effect”. Take S723P: the “effect of a mutation on the interaction” value is given as “disrupting interaction strength”. Then S723A, with “with no effect”; and S723E, with “with no effect”.

As to S723K, the “effect of a mutation on the interaction” value is recorded as “with no effect”. Then S729E, with “with no effect”.

With S729A, the “effect of a mutation on the interaction” value is “with no effect”. Then E715K, with “with no effect”. As to E715A, the “effect of a mutation on the interaction” value was “with no effect”.

As for T725E, the “effect of a mutation on the interaction” value is on record as “with no effect”. Regarding T725A, the “effect of a mutation on the interaction” value is “with no effect”. As for T725K, the “effect of a mutation on the interaction” value is recorded as “with no effect”. Take K728E: the “effect of a mutation on the interaction” value is given as “with no effect”. For the variant K728A, the “effect of a mutation on the interaction” value is “with no effect”. For Q722T, the “effect of a mutation on the interaction” value is listed as “disrupting interaction strength”.

Take Q722A: the “effect of a mutation on the interaction” value is on record as “with no effect”. Turning to Q722K, the “effect of a mutation on the interaction” value was “with no effect”. With Q722E, the “effect of a mutation on the interaction” value is “with no effect”.
